The Kd is the concentration at which binding is half-saturated. High values mean weaker binding, low ones tighter binding. The term koff denotes a measure of how fast the partners let go of each other. Read a low koff as slow dissociation. In general, stoichiometry N refers to a count of units in the complex or per binding partner.

To fix the notation:
B1: BMP-2 (bone morphogenetic protein 2), wild type (ligand, UniProt P12643 283-396, looked up)
chain: QAKHKQRKRLKSSCKRHPLYVDFSDVGWNDWIVAPPGYHAFYCHGECPFPLADHLNSTNHAIVQTLVNSVNSKIPKACCVPTELSAISMLYLDENEKVVLKNYQDMVVEGCGCR
B4: His-tagged fl-Gremlin-1 (natural protein, human, UniProt O60565 25-184, looked up)
chain: KKKGSQGAIPPPDKAQHNDSEQTQSPQQPGSRNRGRGQGRGTAMPGEEVLESSQEALHVTERKYLKRDWCKTQPLKQTIHEEGCNSRTIINRFCYGQCNSFYIPRHIRKEEGSFQSCSFCKPKKFTTMMVTLNCPELQPPTKKKRVTRVKQCRCISIDLD

Like-named read-outs stand apart in the source and are kept apart here.

The target in series [1] is His-tagged ΔN-Gremlin-1 (human) (UniProt O60565). Kind of series: BLI.
For series [2], the target named is His-tagged fl-Gremlin-1 (human) (UniProt O60565). Kind of series: BLI.
Series [3] shares this target. The series is described as follows: BLI. The source holds these as a separate data set. For orientation: In BLI a coated tip is dipped into the sample, and binding shifts an interference pattern.
Series [4] concerns the target His-tagged ΔN-Gremlin-1 (human) (UniProt O60565). The series is described as follows: BLI. This is another data set of the same source.
Series [5] concerns the target B4. Kind of series: BLI.
Series [6] has as its target B4. The series is described as follows: BLI. The source holds these as a separate data set.
Series [7] has as its target B1. The series is described as follows: BLI.
The series “SEC-MALS” concerns the molecule itself. Kind of series: SEC-MALS. In general terms: SEC sorts molecules by how far they enter the pores of the column.
In series [8] the target is B1. Kind of series: BLI. The source holds these as a separate data set.
In series [9] the target is B1. Kind of series: BLI. This is another data set of the same source.
The series “SEC-SAXS” deals with the molecule itself. The series is described as follows: SEC-SAXS.

With BMP-2 mutant # 2 (66 L → R) (ligand), the figures for the Kd in [1], in series [2] and in series [3] were 44.7 nM, 45.9 nM and 32.5 nM, respectively.
As to “BMP-2 mutant # 5 (98 V → T, 100 L → N) (ligand)”, the Kd in [2] and in [3] was 176 nM each time. Moreover, in series [4], the koff was determined as 0.001 s⁻¹.
Take “BMP-2 mutant # 3 (49 F → A, 66 L → R) (ligand)”: the dissociation constant Kd in series [1] came to 95.9 nM; in series [2], 30.4 nM; in series [4], 175 nM.
As to “BMP-2 mutant # 6 (90 L→ Q, 92 L → R) (ligand)”, the Kd in series [1] came to 301 nM.
As to BMP-2 mutant # 1 (49 F → A) (ligand), the Kd in series [1] was found to be 75.4 nM; in series [2] it was 66.1 nM; in series [4], 77.8 nM.
Consider “BMP-2 mutant # 4 (33 V → T, 34 A → S) (ligand)”, for which the results for the Kd in series [1] and in series [2] were 176 nM and 47.2 nM, respectively.
For B1, in the series with His-tagged fl-Gremlin-1 [5], the Kd worked out at 9 nM and the koff was determined as 0.0018 s⁻¹. The molecule also registered a Kd in the series with His-tagged fl-Gremlin-1 [6] of 5.6 nM.

B2: His-tagged ΔN-Gremlin-1 (domain or fragment, human, UniProt O60565 72-184, looked up)
chain: EVLESSQEALHVTERKYLKRDWCKTQPLKQTIHEEGCNSRTIINRFCYGQCNSFYIPRHIRKEEGSFQSCSFCKPKKFTTMMVTLNCPELQPPTKKKRVTRVKQCRCISIDLD
Take B2: in series [7], the Kd worked out at 16.7 nM and the koff worked out at 0.005 s⁻¹. In the series “SEC-MALS”, the “stoichiometry N” value was found to be 2. Besides, the affinity in series [8], expressed as Kd, was 5.2 nM.

B3: untagged ΔN-Gremlin-1 (domain or fragment, human, UniProt O60565 72-184, looked up)
chain: EVLESSQEALHVTERKYLKRDWCKTQPLKQTIHEEGCNSRTIINRFCYGQCNSFYIPRHIRKEEGSFQSCSFCKPKKFTTMMVTLNCPELQPPTKKKRVTRVKQCRCISIDLD
Take B3: the Kd in [9] worked out at 8.5 nM.
With B4, the “stoichiometry N” value in “SEC-SAXS” is 2.

These data come from publication PMC4888461 (Biochemical Journal, 2016).
